Experimental data as given in US20110038920A1, “WOUND HEALING COMPOSITIONS AND TREATMENTS” (priority 2008, published 2011).

Test system: OPN expression in Swiss 3T3 fibroblasts
Experiment: Induction of OPN expression in fibroblasts by growth factors/cytokines (Western blot)
Type: cell-based
Conditions: 8 h; PDGF-BB 20, EGF 100, TGFβ1 10, TGFβ3 10, IL-6 50, TNFα 10 ng/ml
Method: Protein samples (20 μg; collected in T-PER® Reagent; PIERCE Biotechnology) were separated on Tris-Glycine Gels (Invitrogen), transferred to PVDF, and blotted according to standard protocols (antibody details are provided above).
Swiss 3T3, J774.1 macrophages, and RBL mast cells were cultured in DMEM+10% fetal calf serum. Primary neutrophils were harvested by peritoneal lavage 4 h post-thioglycollate-induced peritonitis, and primary macrophages were derived from mouse bone marrow and activated with LPS (500 ng/ml).

B1: TGFβ3: growth factor/cytokine, BioVision (protein, UniProt P10600 301-412, looked up)
Transforming growth factor …: ALDTNYCFRNLEENCCVRPLYIDFRQDLGWKWVHEPKGYYANFCSGPCPYLRSADTTHSTVLGLYNTLNPEASASPCCVPQDLEPLTILYYVGRTPKVEQLSNMVVKSCKCS
modifications: Transforming growth factor beta-3
notes: growth factor/cytokine, BioVision
In the case of B1, the “ability to upregulate OPN expression in Swiss 3T3s” value is reported as “not”.
